The assay has as its target T1, B cell maturation antigen (BCMA) (human, UniProt Q02223 1-184).
T1 construct: BCMA as carried by RPMI-8226 (high BCMA) and Daudi (low BCMA) tumor cells; also called TNFRSF17; tumor necrosis factor receptor superfamily member 17
T1 sequence: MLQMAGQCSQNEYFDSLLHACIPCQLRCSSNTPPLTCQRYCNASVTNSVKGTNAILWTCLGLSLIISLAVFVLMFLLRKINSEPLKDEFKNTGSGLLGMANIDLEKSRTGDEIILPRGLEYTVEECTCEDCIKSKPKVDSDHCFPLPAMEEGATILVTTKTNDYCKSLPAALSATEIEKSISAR
Kind of assay: co-culture of transduced PBMCs with RPMI-8226 (high BCMA) or Daudi (low BCMA) cells; recognition read by IFNγ. Here is the method:
PBMCs transduced with recombinant lentiviral particles comprising a viral envelope expressing a mutated VSIV-G and a non-viral membrane-bound tropism polypeptide that binds CD3 and a lentiviral vector encoding an MNDU3 promoter operably linked to a polynucleotide encoding a CD8α signal peptide and an anti-BCMA CAR and a WPRE operably linked to the 3′ prime end of the polynucleotide encoding the anti-BCMA CAR (18 anti-BCMA CARs were evaluated) were co-cultured with Daudi cells (low BCMA expression) or RPMI-8226 cells (high BCMA expression) for 24 hours. After 24 hours, IFNγ levels in co-culture supernatant were measured and plotted as a function of % anti-BCMA CAR positive cells in the co-culture.
5×10⁴ PBMCs transduced with recombinant lentiviruses LV 1 to LV 19 were co-cultured with 5×10⁴ high BCMA-expressing tumor cells (RPMI-8226) or 5×10⁴ low BCMA-expressing tumor cells (Daudi) for 24 hours. Anti-BCMA CAR activity was assessed by harvesting co-culture supernatants and measuring IFNγ levels using a Meso Scale Discovery (MSD®) assay. The percentage of anti-BCMA CAR positive cells was plotted against IFNγ levels produced in co-culture. FIG. 2D.

Positions count from the first letter of the chain named.

B1: anti-BCMA CAR of recombinant lentivirus LV 15 (SEQ ID NO: 279) (other)
chain: EVQLLESGGGLVQPGGSLRLSCAASGFTFDSYTMSWYRQAPGKERELVSAISGHGDSTYYADSVKGRFTISRDNSKNTLYLQMNSLRAEDTAVYYCTRISITTEWLAGDYWGQGTQVTVSSTTTPAPRPPTPAPTIASQPLSLRPEACRPAAGGAVHTRGLDFACDIYIWAPLAGTCGVLLLSLVITLYCKRGRKKLLYIFKQPFMRPVQTTQEEDGCSCRFPEEEEGGCELRVKFSRSADAPAYQQGQNQLYNELNLGRREEYDVLDKRRGRDPEMGGKPRRKNPQEGLYNELQKDKMAEAYSEIGMKGERRRGKGHDGLYQGLSTATKDTYDALHMQALPPR
notes: Chimeric antigen receptor on transduced human PBMCs: anti-BCMA VHH, CD8α hinge and TM, CD137 costim, CD3ζ
As for B1, the binding result is recorded as “binds”.

B2: anti-BCMA CAR of recombinant lentivirus LV 8 (SEQ ID NO: 270) (other)
chain: DIQMTQSPSSLSASVGDRVTITCQASQDIANYLNWYQQKPGKAPKLLIYDASNLETGVPSRFSGSGSGTDFTFTISSLQPEDIATYYCQQHFNLPLTFGGGTKVEIKGGGGSGGGGSGGGGSGGGGSQITLKESGPTLVKPTQTLTLTCTFSGFSLSTSGVGVGWIRQPPGKALEWLALIYWNDEKRYSPSLKSRLTITKDTSKNQVVLTMTNMDPVDTAVYYCAREGSHDYKSSNWFDPWGQGTLVTVSSTTTPAPRPPTPAPTIASQPLSLRPEACRPAAGGAVHTRGLDFACDIYIWAPLAGTCGVLLLSLVITLYCKRGRKKLLYIFKQPFMRPVQTTQEEDGCSCRFPEEEEGGCELRVKFSRSADAPAYQQGQNQLYNELNLGRREEYDVLDKRRGRDPEMGGKPRRKNPQEGLYNELQKDKMAEAYSEIGMKGERRRGKGHDGLYQGLSTATKDTYDALHMQALPPR
notes: Chimeric antigen receptor on transduced human PBMCs: anti-BCMA scFv, CD8α hinge and TM, CD137 costim, CD3ζ; also called LV 8.1 to LV 8.9
As to B2, the binding result is reported as “binds”.

B3: anti-BCMA CAR of recombinant lentivirus LV 18 (SEQ ID NO: 283) (other)
chain: EVQLLESGGGLVQPGGSLRLSCAASGFTFSSEGMSWVRQAPGKERELVSAISGSGDHTYYADSVRGRFTISRDNSKNTLYLQMNSLRAEDTAVYYCNALEGGPTTAIQPGGPDYWGQGTQVTVSSTTTPAPRPPTPAPTIASQPLSLRPEACRPAAGGAVHTRGLDFACDIYIWAPLAGTCGVLLLSLVITLYCKRGRKKLLYIFKQPFMRPVQTTQEEDGCSCRFPEEEEGGCELRVKFSRSADAPAYQQGQNQLYNELNLGRREEYDVLDKRRGRDPEMGGKPRRKNPQEGLYNELQKDKMAEAYSEIGMKGERRRGKGHDGLYQGLSTATKDTYDALHMQALPPR
notes: as for B1
Turning to B3, the binding result is on record as “binds”.

B4: anti-BCMA CAR of recombinant lentivirus LV 7 (SEQ ID NO: 268) (other)
chain: DIQMTQSPSSLSASVGDRVTITCRASQSISSYLNWYQQKPGKAPKLLIYAASSLQSGVPSRFSGSGSGTDFTLTISSLQPEDFATYYCQQAHSSPITFGGGTKVEIKGGGGSGGGGSGGGGSGGGGSEVQLLESGGGLVQPGGSLRLSCAASGFTFSNYAMSWVRQAPGKGLEWVSAISGSGGSTYYADSVKGRFTISRDNSKNTLYLQMNSLRAEDTAVYYCARPGDGYYEGVYFDYWGQGTLVTVSSTTTPAPRPPTPAPTIASQPLSLRPEACRPAAGGAVHTRGLDFACDIYIWAPLAGTCGVLLLSLVITLYCKRGRKKLLYIFKQPFMRPVQTTQEEDGCSCRFPEEEEGGCELRVKFSRSADAPAYQQGQNQLYNELNLGRREEYDVLDKRRGRDPEMGGKPRRKNPQEGLYNELQKDKMAEAYSEIGMKGERRRGKGHDGLYQGLSTATKDTYDALHMQALPPR
notes: Chimeric antigen receptor on transduced human PBMCs: anti-BCMA scFv, CD8α hinge and TM, CD137 costim, CD3ζ
On to B4, for which the binding result is “binds”.

B5: anti-BCMA CAR of recombinant lentivirus LV 12 (SEQ ID NO: 276) (other)
chain: EVQLLESGGGLVQPGGSLRLSCAASGFTFEDYAMSWFRQAPGKEREGVSAISGKGGSTYYADSVKGRFTISRDNSKNTLYLQMNSLRAEDTAVYYCAVLDEEAGAEGGYWGQGTQVTVSSTTTPAPRPPTPAPTIASQPLSLRPEACRPAAGGAVHTRGLDFACDIYIWAPLAGTCGVLLLSLVITLYCKRGRKKLLYIFKQPFMRPVQTTQEEDGCSCRFPEEEEGGCELRVKFSRSADAPAYQQGQNQLYNELNLGRREEYDVLDKRRGRDPEMGGKPRRKNPQEGLYNELQKDKMAEAYSEIGMKGERRRGKGHDGLYQGLSTATKDTYDALHMQALPPR
notes: as for B1
For B5, the binding result is recorded as “binds”.

B6: anti-BCMA CAR of recombinant lentivirus LV 13 (SEQ ID NO: 277) (other)
chain: B5 chain with E30D, D31R, G53T, K54S, G56D
notes: Chimeric antigen receptor on transduced human PBMCs: anti-BCMA VHH, CD8α hinge and TM, CD137 costim, CD3ζ; also called LV 13.1 to LV 13.9
Turning to B6, the binding result is on record as “binds”.

B7: anti-BCMA CAR of recombinant lentivirus LV 9 (SEQ ID NO: 273) (other)
chain: EVQLLESGGGLVQPGGSLRLSCAASGFTFGSEAMSWVRQAPGKERELVSAISGSGEVTYYADSVKGRFTISRDNSKNTLYLQMNSLRAEDTAVYYCQRLVEAKRHWGQGTQVTVSSTTTPAPRPPTPAPTIASQPLSLRPEACRPAAGGAVHTRGLDFACDIYIWAPLAGTCGVLLLSLVITLYCKRGRKKLLYIFKQPFMRPVQTTQEEDGCSCRFPEEEEGGCELRVKFSRSADAPAYQQGQNQLYNELNLGRREEYDVLDKRRGRDPEMGGKPRRKNPQEGLYNELQKDKMAEAYSEIGMKGERRRGKGHDGLYQGLSTATKDTYDALHMQALPPR
notes: Chimeric antigen receptor on transduced human PBMCs: anti-BCMA VHH, CD8α hinge and TM, CD137 costim, CD3ζ; also called LV 9.1 to LV 9.9
As for B7, the binding result is listed as “binds”.

B8: anti-BCMA CAR of recombinant lentivirus LV 1 (SEQ ID NO: 256) (other)
chain: EIVLTQSPATLSLSPGERATLSCRASQSVSSYLAWYQQKPGQAPRLLIYDASNRATGIPARFSGSGSGTDFTLTISSLEPEDFAVYYCQQRVVYPITFGGGTKVEIKGGGGSGGGGSGGGGSGGGGSQITLKESGPTLVKPTQTLTLTCTFSGFSLSTSGVGVGWIRQPPGKALEWLALIYWNDEKRYSPSLKSRLTITKDTSKNQVVLTMTNMDPVDTAVYYCARDEYGGFDIWGQGTMVTVSSTTTPAPRPPTPAPTIASQPLSLRPEACRPAAGGAVHTRGLDFACDIYIWAPLAGTCGVLLLSLVITLYCKRGRKKLLYIFKQPFMRPVQTTQEEDGCSCRFPEEEEGGCELRVKFSRSADAPAYQQGQNQLYNELNLGRREEYDVLDKRRGRDPEMGGKPRRKNPQEGLYNELQKDKMAEAYSEIGMKGERRRGKGHDGLYQGLSTATKDTYDALHMQALPPR
notes: Chimeric antigen receptor on transduced human PBMCs: anti-BCMA scFv, CD8α hinge and TM, CD137 costim, CD3ζ; Encoded with a CD8α signal peptide
Regarding B8, the binding result is listed as “binds”.

B9: anti-BCMA CAR of recombinant lentivirus LV 2 (SEQ ID NO: 258) (other)
chain: B8 chain with V92F, V93D, E185D
notes: as for B4
For the molecule B9, the binding result is on record as “binds”.

B10: anti-BCMA CAR of recombinant lentivirus LV 11 (SEQ ID NO: 275) (other)
chain: EVQLLESGGGLVQPGGSLRLSCAASGFTFDEYTMHWFRQAPGKEREFVSAISGGGSETYYADSVKGRFTISRDNSKNTLYLQMNSLRAEDTAVYYCAAGGEEAGVGYWGQGTQVTVSSTTTPAPRPPTPAPTIASQPLSLRPEACRPAAGGAVHTRGLDFACDIYIWAPLAGTCGVLLLSLVITLYCKRGRKKLLYIFKQPFMRPVQTTQEEDGCSCRFPEEEEGGCELRVKFSRSADAPAYQQGQNQLYNELNLGRREEYDVLDKRRGRDPEMGGKPRRKNPQEGLYNELQKDKMAEAYSEIGMKGERRRGKGHDGLYQGLSTATKDTYDALHMQALPPR
notes: as for B1
With B10, the binding result is recorded as “binds”.

B11: anti-BCMA CAR of recombinant lentivirus LV 5 (SEQ ID NO: 263) (other)
chain: QVQLVESGGGLVKPGGSLRLSCAASGFTFSDYYMSWIRQAPGKGLEWVSYISSSGSTIYYADSVKGRFTISRDNAKNSLYLQMNSLRAEDTAVYYCARDQGNYGVDVWGQGTTVTVSSGGGGSGGGGSGGGGSGGGGSDIQMTQSPSTLSASVGDRVTITCRASQSISSWLAWYQQKPGKAPKLLIYEASSLESGVPSRFSGSGSGTEFTLTISSLQPDDFATYYCQQSDSHPITFGGGTKVEIKTTTPAPRPPTPAPTIASQPLSLRPEACRPAAGGAVHTRGLDFACDIYIWAPLAGTCGVLLLSLVITLYCKRGRKKLLYIFKQPFMRPVQTTQEEDGCSCRFPEEEEGGCELRVKFSRSADAPAYQQGQNQLYNELNLGRREEYDVLDKRRGRDPEMGGKPRRKNPQEGLYNELQKDKMAEAYSEIGMKGERRRGKGHDGLYQGLSTATKDTYDALHMQALPPR
notes: Chimeric antigen receptor on transduced human PBMCs: anti-BCMA scFv, CD8α hinge and TM, CD137 costim, CD3ζ; also called LV 5.1 to LV 5.9
As for B11, the binding result was “binds”.

B12: anti-BCMA CAR of recombinant lentivirus LV 3 (SEQ ID NO: 259) (other)
chain: QVQLVESGGGVVQPGRSLRLSCAASGFTFSSYGMHWVRQAPGKGLEWVAVISYEGSNKYYADSVKGRFTISRDNSKNTLYLQMNSLRAEDTAVYYCARELGDGMDVWGQGTTVTVSSGGGGSGGGGSGGGGSGGGGSEIVLTQSPATLSLSPGERATLSCRASQSVSSYLAWFQQKPGQAPRLLIYDASNRATGIPARFSGSGSGTDFTLTISSLEPEDFAVYYCQQRVDLWTFGGGTKVEIKTTTPAPRPPTPAPTIASQPLSLRPEACRPAAGGAVHTRGLDFACDIYIWAPLAGTCGVLLLSLVITLYCKRGRKKLLYIFKQPFMRPVQTTQEEDGCSCRFPEEEEGGCELRVKFSRSADAPAYQQGQNQLYNELNLGRREEYDVLDKRRGRDPEMGGKPRRKNPQEGLYNELQKDKMAEAYSEIGMKGERRRGKGHDGLYQGLSTATKDTYDALHMQALPPR
notes: Chimeric antigen receptor on transduced human PBMCs: anti-BCMA scFv, CD8α hinge and TM, CD137 costim, CD3ζ; also called LV 3.1 to LV 3.9
Regarding B12, the binding result is “binds”.

B13: anti-BCMA CAR of recombinant lentivirus LV 10 (SEQ ID NO: 274) (other)
chain: EVQLLESGGGLVQPGGSLRLSCAASGFTFESEAMSWYRQAPGKERELVSVITSEGSTYYADSVKGRFTISRDNSKNTLYLQMNSLRAEDTAVYYCAHIEWETRLNWGQGTQVTVSSTTTPAPRPPTPAPTIASQPLSLRPEACRPAAGGAVHTRGLDFACDIYIWAPLAGTCGVLLLSLVITLYCKRGRKKLLYIFKQPFMRPVQTTQEEDGCSCRFPEEEEGGCELRVKFSRSADAPAYQQGQNQLYNELNLGRREEYDVLDKRRGRDPEMGGKPRRKNPQEGLYNELQKDKMAEAYSEIGMKGERRRGKGHDGLYQGLSTATKDTYDALHMQALPPR
notes: as for B1
B13: the binding result is on record as “binds”.

Values taken from US20260007748A1 (KELONIA THERAPEUTICS, published 2026).
